B1: Neutrophil Elastase (protein)
chain: IVGGRRARPHAWPFMVSLQLRGGHFCGATLIAPNFVMSAAHCVANVNVRAVRVVLGAHNLSRREPTRQVFAVQRIFENGYDPVNLLNDIVILQLNGSATINANVQVAQLPAQGRRLGNGVQCLAMGWGLLGRNRGIASVLQELNVTVVTSLCRRSNVCTLVRGRQAGVCFGDSGSPLVCNGLIHGIASFVRGGCASGLYPDAFAPVAQFVNWIDSIIQ
B2: MMP-2 (protein)
chain: YNFFPRKPKWDKNQITYRIIGYTPDLDPETVDDAFARAFQVWSDVTPLRFSRIHDGEADIMINFGRWEHGDGYPFDGKDGLLAHAFAPGTGVGGDSHFDDDELWTLGEGQVVRVKYGNADGEYCKFPFLFNGKEYNSCTDTGRSDGFLWCSTTYNFEKDGKYGFCPHEALFTMGGNAEGQPCKFPFRFQGTSYDSCTTEGRTDGYRWCGTTEDYDRDKKYGFCPETAMSTVGGNSEGAPCVFPFTFLGNKYESCTSAGRSDGKMWCATTANYDDDRKWGFCPDQGYSLFLVAAHEFGHAMGLEHSQDPGALMAPIYTYTKNFRLSQDDIKGIQELYGASPDIDLGTGPTPTLGPVTPEICKQDIVFDGIAQIRGEIFFFKDRFIWRTVTPRDKPMGPLLVATFWPELPEKIDAVYEAPQEEKAVFFAGNEYWIYSASTLERGYPKPLTSLGLPPDVQRVDAAFNWSKNKKTYIFAGDKFWRYNEVKKKMDPGFPKLIADAWNAIPDNLDAVVDLQGGGHSYFFKGAYYLKLENQSLKSVKFGSIKSDWLGC
B3: Matriptase (protein)
chain: VVGGTDADEGEWPWQVSLHALGQGHICGASLISPNWLVSAAHCYIDDRGFRYSDPTQWTAFLGLHDQSQRSAPGVQERRLKRIISHPFFNDFTFDYDIALLELEKPAEYSSMVRPICLPDASHVFPAGKAIWVTGWGHTQYGGTGALILQKGEIRVINQTTCENLLPQQITPRMMCVGFLSGGVDSCQGDSGGPLSSVEADGRIFQAGVVSWGDGCAQRNKPGVYTRLPLFRDWIKENTGV
B4: Cathepsin G (protein)
chain: IIGGRESRPHSRPYMAYLQIQSPAGQSRCGGFLVREDFVLTAAHCWGSNINVTLGAHNIQRRENTQQHITARRAIRHPQYNQRTIQNDIMLLQLSRRVRRNRNVNPVALPRAQEGLRPGTLCTVAGWGRVSMRRGTDTLREVQLRVQRDRQCLRIFGSYDPRRQICVGDRRERKAAFKGDSGGPLLCNNVAHGIVSYGKSSGVPPEVFTRVSSFLPWIRTTMRS

Each protein was assayed against AxCT mask27 EpCAM H90.2 L059 version 1.
B1 was tested, and the Percent cleavage was 14%.
B2 was tested, and the Percent cleavage was 55%.
B3 gave a Percent cleavage of 39%.
Protein B4 has a Percent cleavage of 6%.

These proteins were tested against AxCT mask27 EGFR EH104 L054 version 1.
B1 showed a Percent cleavage of 23%.
B2 gave a Percent cleavage of 59%.
Protein B3 has a Percent cleavage of 37%.
B4 showed a Percent cleavage of 0%.

These proteins were tested against AxCT mask27 EGFR EH104 L068 version 1.
With B1 the Percent cleavage was 19%.
With B2 the Percent cleavage was 48%.
For B3, the Percent cleavage was 0%.
B4 showed a Percent cleavage of 0%.

Each protein was assayed against AxCT mask27 EpCAM H90.2 L075 version 1.
For B1, the Percent cleavage was 0%.
B2 showed a Percent cleavage of 0%.
B3 gave a Percent cleavage of 0%.
For B4, the Percent cleavage was 8%.

These proteins were tested against AxCT mask27 EpCAM H90.2 L076 version 1.
B1 was tested, and the Percent cleavage was 6%.
In the case of B2, the Percent cleavage is reported as 35%.
B3 was tested, and the Percent cleavage was 0%.
Work on B4 yielded a Percent cleavage of 0%.

Each protein was assayed against AxCT mask27 EGFR EH104 L072 version 1.
Protein B1 has a Percent cleavage of 10%.
B2 was tested, and the Percent cleavage was 73%.
Work on B3 yielded a Percent cleavage of 0%.
Work on B4 yielded a Percent cleavage of 0%.

What follows are proteins tested against AxCT mask27 EGFR EH104 L058 version 1.
B1 gave a Percent cleavage of 9%.
B2 was tested, and the Percent cleavage was 62%.
B3 showed a Percent cleavage of 23%.
Work on B4 yielded a Percent cleavage of 0%.

Each protein was assayed against AxCT mask27 EpCAM H90.2 NCLV.
In the case of B1, the Percent cleavage is reported as 0%.
In the case of B2, the Percent cleavage is reported as 0%.
In the case of B3, the Percent cleavage is reported as 0%.
B4 gave a Percent cleavage of 0%.

These proteins were tested against AxCT mask27 EpCAM H90.2 L040 version 1.
B1 showed a Percent cleavage of 9%.
B2 gave a Percent cleavage of 90%.
B3 showed a Percent cleavage of 93%.
Protein B4 has a Percent cleavage of 0%.

The proteins below were run against AxCT mask27 EpCAM H90.2 L043 version 1.
B1 was tested, and the Percent cleavage was 0%.
B2 was tested, and the Percent cleavage was 39%.
With B3 the Percent cleavage was 79%.
In the case of B4, the Percent cleavage is reported as 0%.

What follows are proteins tested against AxCT mask27 EGFR EH104 L070 version 1.
In the case of B1, the Percent cleavage is reported as 11%.
Work on B2 yielded a Percent cleavage of 22%.
In the case of B3, the Percent cleavage is reported as 13%.
With B4 the Percent cleavage was 0%.

The proteins below were run against AxCT mask27 EGFR EH104 L041 version 1.
With B1 the Percent cleavage was 0%.
For B2, the Percent cleavage was 51%.
B3 showed a Percent cleavage of 62%.
B4 gave a Percent cleavage of 0%.

What follows are proteins tested against AxCT mask27 EpCAM H90.2 L063 version 1.
B1 was tested, and the Percent cleavage was 0%.
In the case of B2, the Percent cleavage is reported as 36%.
With B3 the Percent cleavage was 68%.
B4 was tested, and the Percent cleavage was 0%.

What follows are proteins tested against AxCT mask27 EGFR EH104 L064 version 1.
B1 was tested, and the Percent cleavage was 30%.
With B2 the Percent cleavage was 63%.
For B3, the Percent cleavage was 0%.
B4 was tested, and the Percent cleavage was 0%.

Each protein was assayed against AxCT mask27 EGFR EH104 L055 version 1.
With B1 the Percent cleavage was 9%.
B2 showed a Percent cleavage of 35%.
B3 gave a Percent cleavage of 53%.
Protein B4 has a Percent cleavage of 0%.

What follows are proteins tested against AxCT mask27 EGFR EH104 L059 version 1.
Work on B1 yielded a Percent cleavage of 15%.
With B2 the Percent cleavage was 39%.
Work on B3 yielded a Percent cleavage of 33%.
B4 was tested, and the Percent cleavage was 8%.

Each protein was assayed against AxCT mask27 EpCAM H90 L001 version 1.
B1 gave a Percent cleavage of 44%.
In the case of B2, the Percent cleavage is reported as 104%.
Work on B3 yielded a Percent cleavage of 42%.
B4 was tested, and the Percent cleavage was 0%.

These proteins were tested against AxCT mask27 EpCAM H90.2 L060 version 1.
Work on B1 yielded a Percent cleavage of 7%.
B2 gave a Percent cleavage of 40%.
With B3 the Percent cleavage was 92%.
With B4 the Percent cleavage was 0%.

The proteins below were run against AxCT mask27 EGFR EH104 L066 version 1.
Protein B1 has a Percent cleavage of 9%.
B2 showed a Percent cleavage of 25%.
With B3 the Percent cleavage was 0%.
B4 showed a Percent cleavage of 0%.

The proteins below were run against AxCT mask27 EpCAM H90.2 L061 version 1.
With B1 the Percent cleavage was 14%.
In the case of B2, the Percent cleavage is reported as 74%.
Work on B3 yielded a Percent cleavage of 22%.
B4 showed a Percent cleavage of 0%.

The proteins below were run against AxCT mask27 EGFR EH104 L061 version 1.
In the case of B1, the Percent cleavage is reported as 19%.
Protein B2 has a Percent cleavage of 43%.
B3 showed a Percent cleavage of 20%.
B4 gave a Percent cleavage of 0%.

Each protein was assayed against AxCT mask27 EGFR EH104 L001 version 1.
Protein B1 has a Percent cleavage of 34%.
Work on B2 yielded a Percent cleavage of 71%.
B3 was tested, and the Percent cleavage was 37%.
For B4, the Percent cleavage was 0%.

What follows are proteins tested against AxCT mask27 EGFR EH104 L071 version 1.
B1 gave a Percent cleavage of 26%.
For B2, the Percent cleavage was 39%.
Work on B3 yielded a Percent cleavage of 0%.
Work on B4 yielded a Percent cleavage of 0%.

These proteins were tested against AxCT mask27 EGFR EH104 L057 version 1.
Work on B1 yielded a Percent cleavage of 28%.
Protein B2 has a Percent cleavage of 47%.
B3 gave a Percent cleavage of 36%.
With B4 the Percent cleavage was 0%.

What follows are proteins tested against AxCT mask27 EGFR EH104 L043 version 1.
B1 was tested, and the Percent cleavage was 7%.
B2 showed a Percent cleavage of 27%.
B3 gave a Percent cleavage of 59%.
In the case of B4, the Percent cleavage is reported as 0%.

What follows are proteins tested against AxCT mask27 EGFR EH104 L067 version 1.
B1 was tested, and the Percent cleavage was 32%.
With B2 the Percent cleavage was 34%.
B3 showed a Percent cleavage of 0%.
B4 showed a Percent cleavage of 0%.

These proteins were tested against AxCT mask27 EpCAM H90.2 L064 version 1.
With B1 the Percent cleavage was 32%.
B2 was tested, and the Percent cleavage was 79%.
B3 gave a Percent cleavage of 0%.
B4 gave a Percent cleavage of 0%.

The proteins below were run against AxCT mask27 EGFR EH104 L065 version 1.
With B1 the Percent cleavage was 10%.
Protein B2 has a Percent cleavage of 71%.
In the case of B3, the Percent cleavage is reported as 0%.
With B4 the Percent cleavage was 0%.

The proteins below were run against AxCT mask27 EGFR EH104 L063 version 1.
B1 was tested, and the Percent cleavage was 9%.
For B2, the Percent cleavage was 31%.
B3 showed a Percent cleavage of 49%.
B4 showed a Percent cleavage of 0%.

What follows are proteins tested against AxCT mask27 EGFR EH104 L056 version 1.
For B1, the Percent cleavage was 14%.
B2 gave a Percent cleavage of 51%.
Protein B3 has a Percent cleavage of 39%.
B4 showed a Percent cleavage of 0%.

Each protein was assayed against AxCT mask27 EGFR EH104 L073 version 1.
With B1 the Percent cleavage was 9%.
B3 gave a Percent cleavage of 0%.
B4 gave a Percent cleavage of 0%.

The proteins below were run against AxCT mask27 EpCAM H90.2 L073 version 1.
For B1, the Percent cleavage was 10%.
For B2, the Percent cleavage was 17%.
B3 gave a Percent cleavage of 0%.
Work on B4 yielded a Percent cleavage of 0%.

What follows are proteins tested against AxCT mask27 EGFR EH104 L040 version 1.
Work on B1 yielded a Percent cleavage of 13%.
B2 showed a Percent cleavage of 60%.
For B3, the Percent cleavage was 67%.
B4 showed a Percent cleavage of 0%.

Each protein was assayed against AxCT mask27 EGFR EH104 L069 version 1.
With B1 the Percent cleavage was 22%.
Protein B2 has a Percent cleavage of 29%.
Work on B3 yielded a Percent cleavage of 0%.
In the case of B4, the Percent cleavage is reported as 12%.

Each protein was assayed against AxCT mask27 EpCAM H90.2 L041 version 1.
In the case of B1, the Percent cleavage is reported as 0%.
In the case of B3, the Percent cleavage is reported as 80%.
Work on B4 yielded a Percent cleavage of 0%.

The proteins below were run against AxCT mask27 EGFR EH104 L060 version 1.
In the case of B1, the Percent cleavage is reported as 10%.
B2 showed a Percent cleavage of 27%.
B3 gave a Percent cleavage of 62%.
B4 gave a Percent cleavage of 0%.

What follows are proteins tested against AxCT mask27 EGFR EH104 L062 version 1.
B1 was tested, and the Percent cleavage was 8%.
B2 was tested, and the Percent cleavage was 63%.
B3 gave a Percent cleavage of 52%.
B4 showed a Percent cleavage of 0%.

— patent US20240336909
